Experimental data: patent CN115010810A (NANJING SANHOME PHARMACEUTICAL CO LTD, dated 2022)

T1: 人CTLA-4-His蛋白 (human CTLA-4 extracellular domain fused to His tag) (human, UniProt P16410 36-161)
T1 construct: also called hCTLA-4-His
T1 sequence: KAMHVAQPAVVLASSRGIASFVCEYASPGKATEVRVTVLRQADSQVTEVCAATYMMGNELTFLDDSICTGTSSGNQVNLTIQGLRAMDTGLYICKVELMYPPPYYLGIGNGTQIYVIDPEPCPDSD

B1: HuC92-11 (antibody, V domains shown)
VH: QVQLVESGGGVVQPGRSLRLSCAASGFTFSNYAMSWVRQAPGKGLEWVAEISYSGTYSYHSDTVTGRFTISRDNSKNTLYLQMSSLRAEDTAVYYCTRRDYDNEMDYWGQGTLVTVSS
VL: DIQMTQSPSSLSASVGDRVTITCRTSQVITNYLNWYQQKPGKAPKLLIYYTSRLHSGVPSRFSGSGSGTDYTLTISSLQPEDFATYYCQQFGKRPPTFGGGTKVEIK
notes: also called SHS010-HuC92-11; 人源化抗CTLA-4抗体HuC92-11
B2: SHS006-HuP01-22 (antibody, V domains shown)
VH: QVQLVQSGAEVKKPGASVKVSCKASGYTFTWYHMSWVRQAPGQGLEYMGYINTRSGDTYYNEKFKGRVTMTTDTSTSTAYMELRSLRSDDTAVYYCARSGYGGSDYWGQGTLVTVSS
VL: DIVMTQSPDSLAVSLGERATINCKSSQNLLYSENKKNSLAWYQQKPGQPPKLLISWASTREFGVPDRFSGSGSGTDFTLTISSLQAEDVAVYYCEQYYDILPTFGGGTKVEIK
notes: also called SHS006-P01-22; 人源化抗PD-1抗体SHS006-HuP01-22

Legend:
[1] = molecular target: T1, 人CTLA-4-His蛋白 (human CTLA-4 …); assay: ELISA, human CTLA-4-His coated
[2] = molecular target: T2, PD-1 on the surface of hPD-1-CHO-K1 cells (human, UniProt Q15116 25-288); assay: FACS on hPD-1-CHO-K1 cells
T2 construct: also called 细胞表面PD-1; CHO-K1-PD-1
T2 sequence (Q15116 25-288 limits assumed): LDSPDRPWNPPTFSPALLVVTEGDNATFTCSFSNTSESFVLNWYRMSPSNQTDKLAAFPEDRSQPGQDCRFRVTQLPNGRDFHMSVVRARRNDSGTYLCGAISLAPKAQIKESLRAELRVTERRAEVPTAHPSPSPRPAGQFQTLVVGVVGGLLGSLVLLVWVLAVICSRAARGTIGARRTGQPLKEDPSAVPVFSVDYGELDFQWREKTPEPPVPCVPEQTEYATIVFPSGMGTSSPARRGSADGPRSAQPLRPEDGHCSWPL

[3] = molecular target: 人PD-1-His蛋白 (自产; human PD-1 extracellular domain with His tag) (human, UniProt Q15116 25-170); assay: ELISA, human PD-1-His coated
Chain of 人PD-1-His蛋白 (自产; human PD-1 extracellular domain with His tag) (Q15116 25-170 limits assumed): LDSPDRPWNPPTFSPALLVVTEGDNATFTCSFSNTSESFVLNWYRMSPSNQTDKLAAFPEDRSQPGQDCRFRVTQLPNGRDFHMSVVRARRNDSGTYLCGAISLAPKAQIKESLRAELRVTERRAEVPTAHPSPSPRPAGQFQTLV

[4] = molecular target: T3, 食蟹猴PD-1-His (SB, Cat.No.90311-C08H) (cynomolgus monkey); assay: ELISA, cynomolgus PD-1-His coated
T3 construct: Purchased protein; also called cynomolgus PD-1-His

Row | Binder | EC50 [1] | EC50 [2] | EC50 [3] | EC50 [4]
1 | B1 | 0.01 nM |  |  | 
2 | B2 |  | 0.11 nM | 0.18 nM | 0.088 nM
